Measurements as given in article PMC11857070.

Molecular target: Lectin-like protein 1 (Llp1), residues 23-241, without the signal peptide (Ustilago maydis)
Test: SEC-MALS; Superdex 200 Increase 10/300, HEPES buffer, pH 7.5

## Lectin-like protein 1 (Llp1), residues 23-241, without the signal peptide (from UniProt A0A0D1E6R1 23-241) (domain or fragment)
  stoichiometry N: 4
